{"source": "paper PMC9337824", "molecules": {"B1": {"name": "Ligelizumab (antibody, V domains shown)", "VH": "QVQLVQSGAEVMKPGSSVKVSCKASGYTFSWYWLEWVRQAPGHGLEWMGEIDPGTFTTNYNEKFKARVTFTADTSTSTAYMELSSLRSEDTAVYYCARFSHFSGSNYDYFDYWGQGTLVTVSS", "VL": "EIVMTQSPATLSVSPGERATLSCRASQSIGTNIHWYQQKPGQAPRLLIYYASESISGIPARFSGSGSGTEFTLTISSLQSEDFAVYYCQQSWSWPTTFGGGTKVEIK"}}, "key": {"[1]": {"target": "CD23 on SKW6.4 B lymphoma cells (human (endogenous in SKW6.4)) (UniProt P06734)", "sequence (P06734 whole entry)": "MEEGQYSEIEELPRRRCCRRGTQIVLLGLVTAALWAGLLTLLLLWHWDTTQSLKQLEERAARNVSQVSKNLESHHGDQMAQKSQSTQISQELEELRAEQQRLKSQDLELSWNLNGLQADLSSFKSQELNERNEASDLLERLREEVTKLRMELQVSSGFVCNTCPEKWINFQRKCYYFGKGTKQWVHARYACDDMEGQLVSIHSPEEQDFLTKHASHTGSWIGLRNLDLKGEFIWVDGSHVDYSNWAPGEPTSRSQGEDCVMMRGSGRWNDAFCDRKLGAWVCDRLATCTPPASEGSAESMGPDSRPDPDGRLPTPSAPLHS", "experiment": "flow cytometry on cells; Alexa Fluor 647-conjugated UB-221, ligelizumab (UBP lot) or omalizumab at 0 to 10 μg/mL mixed with an equal volume of 15 μg/mL human IgE in PBS, 1 hour at room temperature; added to CD23^+ SKW6.4 cells for 30 minutes at 4°C"}, "Ligelizumab": {"target": "Ligelizumab", "experiment": "SPR; IgG Fc antibodies covalently coupled to the sensor chip captured the anti-IgE mAbs (ligelizumab: Creative Biolabs, TAB755); Expi293-expressed human full-length IgE injected at 0.312–50 nM"}, "Omalizumab": {"target": "Omalizumab", "experiment": "SPR; IgG Fc antibodies covalently coupled to the sensor chip captured the anti-IgE mAbs (ligelizumab: Creative Biolabs, TAB755); Expi293-expressed human full-length IgE injected at 0.312–50 nM"}, "[2]": {"target": "IgE in sera of patients with atopic dermatitis (human (endogenous in patients' sera))", "sequence (P01854 whole entry)": "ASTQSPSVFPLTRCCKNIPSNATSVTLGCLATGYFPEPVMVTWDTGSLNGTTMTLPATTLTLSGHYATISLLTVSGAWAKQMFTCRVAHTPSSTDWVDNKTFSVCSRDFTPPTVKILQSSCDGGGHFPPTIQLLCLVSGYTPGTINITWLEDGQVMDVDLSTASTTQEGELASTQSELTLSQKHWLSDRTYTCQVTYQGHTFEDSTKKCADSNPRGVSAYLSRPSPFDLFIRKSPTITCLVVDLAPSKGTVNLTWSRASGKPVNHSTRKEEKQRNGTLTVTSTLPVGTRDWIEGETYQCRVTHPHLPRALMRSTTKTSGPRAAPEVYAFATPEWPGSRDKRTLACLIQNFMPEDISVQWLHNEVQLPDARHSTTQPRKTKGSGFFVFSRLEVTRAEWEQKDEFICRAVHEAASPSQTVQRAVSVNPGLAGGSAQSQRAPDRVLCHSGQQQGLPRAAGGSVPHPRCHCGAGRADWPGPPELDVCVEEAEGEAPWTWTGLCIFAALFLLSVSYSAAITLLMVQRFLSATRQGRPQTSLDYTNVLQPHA", "experiment": "ELISA; sera of AD patients with low basal IgE (<4,800 ng/mL, n = 9) incubated 1 hour at room temperature with mAb at 0–4,000 ng/mL (ligelizumab: Creative Biolabs TAB-755); remaining free IgE measured on plates coated with FcεRIα-Fcγ"}, "[3]": {"target": "CD23-bound IgE on SKW6.4 cells (human | human (endogenous in SKW6.4)) (UniProt P01854)", "experiment": "flow cytometry on cells; CD23^+ SKW6.4 cells with 15 μg/mL human IgE for 30 minutes at 4°C, washed, then UB-221, ligelizumab (UBP lot) or omalizumab at 0–10 μg/mL in PBS for 30 minutes at 4°C; Brilliant Violet 421 anti-human IgG Fc"}, "[4]": {"target": "IgE in sera of patients with atopic dermatitis (human (endogenous in patients' sera))", "experiment": "ELISA; sera of AD patients with high basal IgE (>24,000 ng/mL, n = 10) incubated 1 hour at room temperature with mAb at 0–75,000 ng/mL; remaining free IgE measured on plates coated with FcεRIα-Fcγ"}}}
{"molecule": "Preformed UB-221–IgE complex (from UniProt P01854 1-546)", "values": [{"measurement": "maximum binding MFI", "setting": "[1]", "value": 1280, "unit": "MFI"}]}
{"molecule": "Expi293-expressed human full-length IgE (from UniProt P01854 1-546) (natural protein)", "values": [{"measurement": "Kd", "setting": "Ligelizumab", "value": 0.016, "unit": "nM"}, {"measurement": "Kd", "setting": "Omalizumab", "value": 0.23, "unit": "nM"}]}
{"molecule": "Preformed ligelizumab-IgE complex (from UniProt P01854 1-546)", "values": [{"measurement": "maximum binding MFI", "setting": "[1]", "value": 191, "unit": "MFI"}]}
{"molecule": "B1", "values": [{"measurement": "EC90", "setting": "[2]", "value": 1, "unit": "µg/mL"}, {"measurement": "maximum binding MFI", "setting": "[3]", "value": 503, "unit": "MFI"}, {"measurement": "EC90", "setting": "[4]", "value": "> 25", "unit": "µg/mL"}]}
